Data set [1] concerns HeLa cells transfected with the GFP1:Caspase-3:Rluc sensor. Description: apoptosis induction BRET assay, GFP1:Caspase-3:Rluc sensor. Type of data set: cell-based. The conditions noted are these: 1 μM staurosporine, 5 hours, 37° C.; DeepBlueC; at time zero; ratio decreased. As for the experimental part: (§1) PGFP1:caspase-3:Rluc DNAs and the original plasmid pGFP1::Rluc (without the caspase-3 site) were transfected into HeLa cell using LipofectAMINE (BRL/Gibco-Life technologies) in 100 mm dishes and 8 μg of plasmid DNA as described in the manufacturer's protocol. Twenty-four hours post-transfection transfected cells were harvested and distributed into 96-well microtiterplate (white Optiplate from Packard) at a density of 30 000 cells per well. The following day, cells were washed with PBS and were induced to undergo apoptosis by adding 100 μl of Iscove media without serum and phenol red (BRL/Life Technologies) containing staurosporine at a final concentration of 1 μM (+inducer; see FIG. 13) or 100 μl of Iscove alone (-inducer). Cells were incubated for 5 hours at 37° C. After this period, 50 μl of BRET buffer (PBS Ca^2+/Mg^2++glucose without aprotinin) and 50 μl of DeepBlueC (20 μM) were added to start the bioluminescence reaction. Total assay volume was 200 μl. Light emissions were detected using the BRETCount (read length of 1 sec. for each filter, SPC mode, temperature 25° C.).

The test system of data set [2] is HeLa cells transfected with the apoptosis Rluc:Caspase:EYFP sensor. Description: apoptosis induction BRET assay, Rluc:Caspase:EYFP sensor. Type of data set: cell-based. The following applies: 1 μM staurosporine, 5 hours, 37° C.; coelenterazine h; ratios decreased.
Protocol: pCEP4/Rluc-EYFP and pCEP4/Rluc-caspase-EYFP DNAs were transfected into HeLa cell using LipofectAMINE (BRL/Gibco-Life technologies) in 100 mm dishes as described in the manufacturer's protocol. 24 hours post-transfection, transfected cells were harvested and distributed into 96-well microtiterplates (white Optiplate from Packard) at a density of 30,000 cells per well. The following day, cells were induced to undergo apoptosis using 1 μM staurosporine dissolved in ISCOVE media (BRL/Gibco-Life technologies) without serum and phenol red at 37° C. (total volume here is 100 μl) for 5 hours. 50 μl of BRET buffer (PBS Ca^2+/Mg^2++glucose without aprotinin) and 50 μl of coelenterazine h (20 μM) were added to start the bioluminescence reaction. Light emissions were detected using the BRETCount (read length 1 sec for each filter, temperature 25° C.). Data was collected 10 minutes after the addition of coelenterazine h. The assay was done in quadruplicate.
Data set [3] has as its system HeLa cells transfected with pGFP1::Rluc. Description: apoptosis induction BRET assay, control construct without caspase-3 site. The data set is classed as cell-based. The following applies: 1 μM staurosporine, 5 hours. As for the experimental part: as §1
Data set [4] deals with Rluc:enterokinase:EYFP fusion protein, N-terminal His tag, purified from bacteria (pQE-32) (UniProt P27652).
Rluc:enterokinase:EYFP fusion protein, N-terminal His tag, purified from bacteria (pQE-32), sequence (P27652 other isoform, or with tags, fused parts or gaps): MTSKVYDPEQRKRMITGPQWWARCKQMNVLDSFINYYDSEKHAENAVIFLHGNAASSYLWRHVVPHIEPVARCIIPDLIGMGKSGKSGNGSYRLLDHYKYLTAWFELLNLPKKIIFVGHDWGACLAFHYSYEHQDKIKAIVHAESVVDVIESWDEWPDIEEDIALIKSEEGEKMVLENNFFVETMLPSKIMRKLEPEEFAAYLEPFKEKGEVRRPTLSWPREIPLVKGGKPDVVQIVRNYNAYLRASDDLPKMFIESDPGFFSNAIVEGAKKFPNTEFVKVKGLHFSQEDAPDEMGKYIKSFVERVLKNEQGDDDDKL
Data set [5] concerns the target Rluc:EYFP fusion protein, N-terminal His tag, purified from bacteria (pQE-32) (UniProt P27652).
The target of data set [6] is Rluc:caspase:EYFP fusion protein expressed in HeLa cells (pCEP4/Rluc-caspase-EYFP) (Renilla) (UniProt P27652). The data set can be described thus: cell-based or functional assay.
Rluc:caspase:EYFP fusion protein expressed in HeLa cells (pCEP4/Rluc-caspase-EYFP) (Renilla), sequence (P27652 other isoform, or with tags, fused parts or gaps): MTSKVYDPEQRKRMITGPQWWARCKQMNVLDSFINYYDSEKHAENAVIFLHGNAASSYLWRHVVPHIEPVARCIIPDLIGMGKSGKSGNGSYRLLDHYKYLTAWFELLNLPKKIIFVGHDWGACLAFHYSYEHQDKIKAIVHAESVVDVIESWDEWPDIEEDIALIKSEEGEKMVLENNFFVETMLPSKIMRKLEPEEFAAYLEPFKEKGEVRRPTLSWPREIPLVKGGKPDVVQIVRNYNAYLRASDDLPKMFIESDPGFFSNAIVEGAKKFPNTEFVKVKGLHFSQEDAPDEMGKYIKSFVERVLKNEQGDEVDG
In data set [7] the target is GFP1:caspase-3:Rluc fusion protein expressed in HeLa cells (pGFP1:caspase-3:Rluc) (Aequorea victoria; Renilla) [GFP: P42212]. Description: cell-based or functional assay.

Rluc:EYFP fusion protein, N-terminal His tag, purified from bacteria (pQE-32), sequence (P27652 whole entry, the tested form may be a part): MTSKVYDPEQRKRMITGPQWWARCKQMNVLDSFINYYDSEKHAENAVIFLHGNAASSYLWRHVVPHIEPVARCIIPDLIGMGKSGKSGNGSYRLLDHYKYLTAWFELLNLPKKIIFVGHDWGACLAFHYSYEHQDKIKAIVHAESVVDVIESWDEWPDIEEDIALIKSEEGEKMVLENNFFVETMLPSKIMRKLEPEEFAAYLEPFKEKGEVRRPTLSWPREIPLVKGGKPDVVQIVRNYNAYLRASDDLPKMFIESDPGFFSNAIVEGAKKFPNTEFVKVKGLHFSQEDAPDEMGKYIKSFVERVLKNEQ

On to `CN[C@@H]1C[C@H]2O[C@@](C)([C@@H]1OC)n1c3ccccc3c3c4c(c5c6ccccc6n2c5c31)C(=O)NC4` [staurosporine], for which the figures for the BRET ratio change in data set [1] and in data set [2] were 0.72 unit and 0.1 unit, respectively. In data set [3], the “change in BRET ratio” value is recorded as “No change in BRET ratio”.

Consider “enterokinase enzyme (Invitrogen, Carlsbad, Calif.)”, for which the “BRET ratio (emission at 550 nm / 470 nm) over four hours, purified protein with two units of enterokinase” value was “Only the ratio for the construct Rluc:enterokinase:EYFP in the presence of the enterokinase enzyme decreased over time” in data set [4]; “The ratios from the negative controls (Rluc and Rluc:EYFP) did not change over time when in the presence or absence of the enterokinase enzyme” in data set [5].

Take “cellular caspase-3 (HeLa cells) (from UniProt P42574 29-277) (enzyme)”: the BRET ratio change in transfected HeLa cells after 5 hours of apoptosis induction by 1 uM staurosporine (unit (BRET ratio)) in data set [6] was 0.1; in data set [7], 0.72.

The values above are taken from patent US20040214227A1, “Bioluminescence resonance energy transfer (bret) fusion molecule and method of use” (priority 1999, published 2004).
